How the values were obtained:
TFAM (no MTS) [1] = biological target: T1, TFAM (no MTS) (Homo sapiens, UniProt Q00059 43-246); assay: fluorescence anisotropy; +UVC; Hill n 1.90±0.12; FP: 25 mM HEPES, 10 mM Mg(OAc)2, 25 mM NaOAc, 75 mM KOAc, pH 7.5, 1 nM DNA, TFAM 0-15 nM diluted on ice (read temperature not stated); AFM oligos: on ice, 2 min; settings: protein: recombinant; label: 5' 6-FAM on strand 1; blunt
T1 sequence: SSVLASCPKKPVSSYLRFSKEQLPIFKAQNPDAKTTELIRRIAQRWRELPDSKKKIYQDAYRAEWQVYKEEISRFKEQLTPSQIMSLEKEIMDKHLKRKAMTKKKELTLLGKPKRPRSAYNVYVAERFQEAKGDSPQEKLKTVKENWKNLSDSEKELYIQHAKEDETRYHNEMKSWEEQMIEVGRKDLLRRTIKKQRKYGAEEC

TFAM (no MTS) [2] = biological target: T1, TFAM (no MTS); assay: fluorescence anisotropy; Hill n 3.09±0.11; FP: 25 mM HEPES, 10 mM Mg(OAc)2, 25 mM NaOAc, 75 mM KOAc, pH 7.5, 1 nM DNA, TFAM 0-15 nM diluted on ice (read temperature not stated); AFM oligos: on ice, 2 min; settings: protein: recombinant; label: 5' 6-FAM on strand 1; blunt
TFAM (no MTS) [3] = biological target: T1, TFAM (no MTS); assay: fluorescence anisotropy; +UVC; Hill n 4.38±0.33; FP: 25 mM HEPES, 10 mM Mg(OAc)2, 25 mM NaOAc, 75 mM KOAc, pH 7.5, 1 nM DNA, TFAM 0-15 nM diluted on ice (read temperature not stated); AFM oligos: on ice, 2 min; settings: protein: recombinant; label: 5' 6-FAM on strand 1; blunt
TFAM (no MTS) [4] = biological target: T1, TFAM (no MTS); assay: fluorescence anisotropy; Hill n 2.64±0.22; FP: 25 mM HEPES, 10 mM Mg(OAc)2, 25 mM NaOAc, 75 mM KOAc, pH 7.5, 1 nM DNA, TFAM 0-15 nM diluted on ice (read temperature not stated); AFM oligos: on ice, 2 min; settings: protein: recombinant; label: 5' 6-FAM on strand 1; blunt
TFAM (no MTS) [5] = biological target: T1, TFAM (no MTS); assay: fluorescence anisotropy; +UVC; Hill n 2.61±0.25; FP: 25 mM HEPES, 10 mM Mg(OAc)2, 25 mM NaOAc, 75 mM KOAc, pH 7.5, 1 nM DNA, TFAM 0-15 nM diluted on ice (read temperature not stated); AFM oligos: on ice, 2 min; settings: protein: recombinant; label: 5' 6-FAM on strand 1; blunt
TFAM (no MTS) [6] = biological target: T1, TFAM (no MTS); assay: fluorescence anisotropy; Hill n 5.06±0.09; FP: 25 mM HEPES, 10 mM Mg(OAc)2, 25 mM NaOAc, 75 mM KOAc, pH 7.5, 1 nM DNA, TFAM 0-15 nM diluted on ice (read temperature not stated); AFM oligos: on ice, 2 min; settings: protein: recombinant; label: 5' 6-FAM on strand 1 (FP); blunt
TFAM (no MTS) [7] = biological target: T1, TFAM (no MTS); assay: fluorescence anisotropy; +UVC; Hill n 4.76±0.11; FP: 25 mM HEPES, 10 mM Mg(OAc)2, 25 mM NaOAc, 75 mM KOAc, pH 7.5, 1 nM DNA, TFAM 0-15 nM diluted on ice (read temperature not stated); AFM oligos: on ice, 2 min; settings: protein: recombinant; label: 5' 6-FAM on strand 1; blunt
TFAM (no MTS) [8] = biological target: T1, TFAM (no MTS); assay: fluorescence anisotropy; Hill n 2.63±0.22; FP: 25 mM HEPES, 10 mM Mg(OAc)2, 25 mM NaOAc, 75 mM KOAc, pH 7.5, 1 nM DNA, TFAM 0-15 nM diluted on ice (read temperature not stated); AFM oligos: on ice, 2 min; settings: protein: recombinant; label: 5' 6-FAM on strand 1; blunt
TFAM (no MTS) [9] = biological target: T1, TFAM (no MTS); assay: fluorescence anisotropy; Hill n 2.40±0.43; FP: 25 mM HEPES, 10 mM Mg(OAc)2, 25 mM NaOAc, 75 mM KOAc, pH 7.5, 1 nM DNA, TFAM 0-15 nM diluted on ice (read temperature not stated); AFM oligos: on ice, 2 min; settings: protein: recombinant; label: 5' 6-FAM on strand 1; blunt
TFAM (no MTS) [10] = biological target: T1, TFAM (no MTS); assay: fluorescence anisotropy; +UVC; Hill n 2.20±0.13; FP: 25 mM HEPES, 10 mM Mg(OAc)2, 25 mM NaOAc, 75 mM KOAc, pH 7.5, 1 nM DNA, TFAM 0-15 nM diluted on ice (read temperature not stated); AFM oligos: on ice, 2 min; settings: protein: recombinant; label: 5' 6-FAM on strand 1; blunt

B1: ND1_288 +UVC (dsDNA)
DNA 1: CTCCACACTAGCAGAGACCAACCGAACCCCCTT
DNA 2: AAGGGGGTTCGGTTGGTCTCTGCTAGTGTGGAG
modifications: UVC 1500 J/m2 photolesions (positions undefined)
Kd (TFAM (no MTS) [1]): 6.12 ± 0.22 nM

B2: ND1_353 40mer (dsDNA)
DNA 1: CACAAACATTATTATAATAAACACCCTCACCACTACAATC
DNA 2: GATTGTAGTGGTGAGGGTGTTTATTATAATAATGTTTGTG
Kd (TFAM (no MTS) [2]): 5.69 ± 0.15 nM

B3: ND1_353 40mer +UVC (dsDNA)
DNA 1: CACAAACATTATTATAATAAACACCCTCACCACTACAATC
DNA 2: GATTGTAGTGGTGAGGGTGTTTATTATAATAATGTTTGTG
modifications: UVC 1500 J/m2 photolesions (positions undefined)
Kd (TFAM (no MTS) [3]): 7.25 ± 0.39 nM

B4: ND2_401 (dsDNA)
DNA 1: CAAATGGGCCATTATCGAAGAATTCACAAAAAA
DNA 2: TTTTTTGTGAATTCTTCGATAATGGCCCATTTG
Kd (TFAM (no MTS) [4]): 4.36 ± 0.24 nM

B5: ND2_401 +UVC (dsDNA)
DNA 1: CAAATGGGCCATTATCGAAGAATTCACAAAAAA
DNA 2: TTTTTTGTGAATTCTTCGATAATGGCCCATTTG
modifications: UVC 1500 J/m2 photolesions (positions undefined)
Kd (TFAM (no MTS) [5]): 6.24 ± 0.15 nM

B6: ND4_473 (dsDNA)
DNA 1: CGGCGCAGTCATTCTCATAATCGCCCACGGGCT
DNA 2: AGCCCGTGGGCGATTATGAGAATGACTGCGCCG
Kd (TFAM (no MTS) [6]): 4.95 ± 0.03 nM

B7: ND4_473 +UVC (dsDNA)
DNA 1: CGGCGCAGTCATTCTCATAATCGCCCACGGGCT
DNA 2: AGCCCGTGGGCGATTATGAGAATGACTGCGCCG
modifications: UVC 1500 J/m2 photolesions (positions undefined)
Kd (TFAM (no MTS) [7]): 5.36 ± 0.14 nM

B8: ND3_92 (dsDNA)
DNA 1: TTAGTAGCTATTACCTTCTTATTATTTGATCTA
DNA 2: TAGATCAAATAATAAGAAGGTAATAGCTACTAA
Kd (TFAM (no MTS) [8]): 4.53 ± 0.13 nM

B9: ND1_450 (dsDNA)
DNA 1: ACTCACCCTAGCATTACTTATATGATATGTCTC
DNA 2: GAGACATATCATATAAGTAATGCTAGGGTGAGT
Kd (TFAM (no MTS) [9]): 4.33 ± 0.17 nM

B10: ND1_450 +UVC (dsDNA)
DNA 1: ACTCACCCTAGCATTACTTATATGATATGTCTC
DNA 2: GAGACATATCATATAAGTAATGCTAGGGTGAGT
modifications: UVC 1500 J/m2 photolesions (positions undefined)
Kd (TFAM (no MTS) [10]): 6.36 ± 0.51 nM
